{
  "source": "paper PMC7857409",
  "about": "(Science (New York, N.y.), 2020)",
  "binders": {"B1": {"name": "nanobody Nb6 (class I synthetic nanobody) (VHH)", "VHH": "QVQLVESGGGLVQAGGSLRLSCAASGIIFGRNAMGWYRQAPGKERELVAGITRRGSITYYADSVKGRFTISRDNAKNTVYLQMNSLKPEDTAVYYCAADPASPAPGDYWGQGTQVTVSS"}},
  "molecular_target": "SARS-CoV-2 Spike receptor binding domain (RBD) (SARS-CoV-2, ancestral (Wuhan-Hu-1) …, UniProt P0DTC2)",
  "assay": "SPR",
  "conditions": "both partners purified",
  "data": [
    {"binder": "B1", "values": [
      {"measurement": "Kd", "result": 41, "unit": "nM"}
    ]}
  ]
}
